According to US20250382355A1 (Merck Sharp & Dohme, published 2025):
Residue numbers refer to the chain shown, from its start.

T1: MERS spike protein on recombinant CHO K1 cells (MERS-CoV, UniProt K9N5Q8 18-1353)
T1 sequence: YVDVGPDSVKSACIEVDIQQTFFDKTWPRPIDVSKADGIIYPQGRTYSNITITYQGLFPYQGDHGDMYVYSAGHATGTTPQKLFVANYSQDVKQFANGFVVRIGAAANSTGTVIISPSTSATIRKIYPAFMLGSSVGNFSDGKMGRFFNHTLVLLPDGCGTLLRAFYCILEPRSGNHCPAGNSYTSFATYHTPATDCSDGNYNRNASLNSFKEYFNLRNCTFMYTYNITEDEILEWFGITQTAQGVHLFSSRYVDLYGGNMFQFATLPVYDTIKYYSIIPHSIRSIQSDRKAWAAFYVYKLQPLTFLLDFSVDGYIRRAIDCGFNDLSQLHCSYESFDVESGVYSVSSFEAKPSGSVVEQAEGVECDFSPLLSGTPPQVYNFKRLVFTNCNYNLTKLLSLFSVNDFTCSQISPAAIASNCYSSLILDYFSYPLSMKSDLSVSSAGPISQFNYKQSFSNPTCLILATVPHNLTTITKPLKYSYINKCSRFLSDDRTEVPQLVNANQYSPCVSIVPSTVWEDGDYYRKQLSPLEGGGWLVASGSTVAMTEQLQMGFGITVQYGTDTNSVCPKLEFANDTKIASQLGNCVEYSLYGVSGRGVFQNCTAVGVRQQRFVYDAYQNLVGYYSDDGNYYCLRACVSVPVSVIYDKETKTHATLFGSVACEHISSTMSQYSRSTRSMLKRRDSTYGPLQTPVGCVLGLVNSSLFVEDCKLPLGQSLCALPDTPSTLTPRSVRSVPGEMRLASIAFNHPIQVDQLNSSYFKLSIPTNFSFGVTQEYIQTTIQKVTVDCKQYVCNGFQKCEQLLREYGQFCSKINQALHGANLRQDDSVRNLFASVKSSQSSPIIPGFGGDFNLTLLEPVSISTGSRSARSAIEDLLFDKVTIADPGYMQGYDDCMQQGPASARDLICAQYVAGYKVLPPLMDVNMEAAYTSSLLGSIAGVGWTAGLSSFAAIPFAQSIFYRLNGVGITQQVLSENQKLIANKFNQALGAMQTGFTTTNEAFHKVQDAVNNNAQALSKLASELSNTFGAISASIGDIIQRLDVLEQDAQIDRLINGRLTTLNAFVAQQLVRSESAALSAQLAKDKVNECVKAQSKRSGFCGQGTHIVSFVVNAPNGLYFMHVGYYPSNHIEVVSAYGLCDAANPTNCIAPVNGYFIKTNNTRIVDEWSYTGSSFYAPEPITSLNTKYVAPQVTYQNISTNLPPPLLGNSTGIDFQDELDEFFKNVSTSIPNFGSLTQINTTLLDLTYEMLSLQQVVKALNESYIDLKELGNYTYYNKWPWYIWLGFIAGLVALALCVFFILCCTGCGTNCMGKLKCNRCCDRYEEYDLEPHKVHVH

B1: 10B8 VHH (VHH)
VHH: QVQLVESGGGLVQPGGSLRLSCAASGITLDYYAIAWFRQAPGKEREGVSCFCSSDGDIRYADSVKGRFTISRDNAKNTVYLQMNSLKPEDTAVYYCATERVYSSTWFFHRYSELDFGSWGRGTQVTVSS
B2: 11F8 VHH-Fc (Fc fusion)
chain: QVQLVESGGGLVQAGGSLRLSCAASGRTVGYYAVGWFRQAPGKERDFVAAISWSGRNTNYADSVTGRFTIFRDNAKNTVDLQMNSLKPEDTAVYYCAADYWNYGSGSEVPNNYDTWGQGTQVTVSS
B3: 13C8 VHH-Fc (Fc fusion)
chain: QVQLVESGGGLVQAGGSLRLSCAASGRTVNKYMTGWFRQTPGKEREFVASIDWSSTTTHYANSVKGRFTISRDKVKNTVYLQMNGLKPEDTAVYYCAAHQDSSYGYTILPIDYDSWGQGTQVTVSS
B4: 19B8 VHH-Fc (Fc fusion)
chain: QVQLVESGGGLVQAGGSLRLSCAASGRTFTNYAMGWFRQAPGKEREFVAAISWSGGGTNYADSVKGRFTISRDNAKNTVYLQMNSPKPEDTAVYYCATTLGYYGSSSRLYEYWGQGTQVTVSS
B5: 16H7 VHH-Fc (Fc fusion)
chain: QVQLVESGGGLVQAGGSLRLSCAASGRAFSKDTMGWFRQAPGKEREFVAVISASGDSTYYADFVKGRFTISRDNAKNTEYLQMNSLKPEDTAVYHCAADGARAYYSINAHRYSWAYNYWGQGTQVTVSS
B6: 11F5 VHH-Fc (Fc fusion)
chain: QVQLVESGGGAVQAGDSLRLSCTASGRTFSTYAVGWFRQAPGKERELLAAITGSGRNPYYPDSLKGRFTISREYAKLPVYLQMNSLKPEDTAVYYCAARRGAIATMPLDYDHWGQGTQVTVSS
B7: 15H7 VHH-Fc (Fc fusion)
chain: QVQLVESGGRLVQAGGSLRLSCAAPGRTFRNLTLGWFRQAPGKEREFVASTSWPDDEMTYYTDSVKGRFTISRDNAKNTVYLQMNSLKPEDTAVYYCAAASWSGRSTLSYDYDYWGQGTQVTVST
B8: 9B2 VHH-Fc (Fc fusion)
chain: QVQLVESGGGLVQPGGSLRLSCAASGFTLDNYAIGWFRQAPGKEREGVSCISSSDGDTQYADSVKGRFTISRDNAKNTVYLQMNSLKPEDTAVYYCAVEKVYARSWFFHLCSELDFGSWGQGTQVTVSS
B9: 8E9 VHH-Fc (Fc fusion)
chain: QVQLVESGGGLVEAGGSLRLSCVASGSSSSINAMGWYRQAPGKQRELVASISHDGETKYANSVKGRFTISRGNAKNTIYLQMNSLKPEDTAVYYCVGDVAWVVVAGEYDYWGQGTQVTVSS
B10: 5A6 VHH-Fc (Fc fusion)
chain: QVQLVESGGGLAQAGGSLRLSCATSGLTFSMSAMGWFRQAPGNEREFVGVINWNGGSSRYADSVRGRFTISRDNAKNTVYLQMNSLKPEDTGVYYCAADALNIGTGEVNPRLYDYWGQGTQVMVSS
B11: 5D7 VHH-Fc (Fc fusion)
chain: QVQLVESGGGLVQAGGSLRLSCAASGRTGSRYIMGWFRQAPGKEREFVAAINWRGDSTYYADSVKGRFTIARDNAKNTAYLQMNSLKPEDTAVYYCVADRGESYYYTRSTEYTYWGQGTQVTVSS
B12: 15H1 VHH-Fc (Fc fusion)
chain: QVQLVESGGGLAQAGGSLRLSCASSGLIFSGSAMGWFRQAPGKEREFVGVISWNGRTTYADSVKGRFTISRDDAVNMVWLQMNNLKPEDTAVYYCAADHLNYGSGDVNPRTYDYWGQGTQVTVSS
B13: 20D11 VHH-Fc (Fc fusion)
chain: QVQLVESGGGLVQAGGSLRLSCAASGRTSSIYSVGWFRQAPGKERELVAGITWSGGTTYYSDSVKGRFTISRDNAKNTVNLQMNNLKPEDTAIYYCAVDRYSMTMSARDYDYWGQGTQVTVSS
B14: 14F3 VHH-Fc (Fc fusion)
chain: B13 chain with S33G, G50L, R72K, N80F, R100T, D111E
B15: 1A11 VHH-Fc (Fc fusion)
chain: QVQLVESGGGLVQAGGSLRLSCEVSGSIYSINSMGWYRQAPGKQRELVAGIVSDGRINYADSVKGRFTISRAKNTVYLQMNSLKPEDTAVYYCAADRAFVYAGDYDYLGQGTQVTVSS
B16: 19E10 VHH-Fc (Fc fusion)
chain: QVQLVESGGGLVQPGGSLRLSCVASGSTISINSMGWYRQAPGKAREMVATITNDGPIKYADPVKGRFTISRDNPKNTVYLQMNSLKPEDTAVYYCVADRAYWLAGEWEYWGQGTQVTVSS
B17: S3_44 VHH-Fc (Fc fusion)
chain: QVQLVESGGGLVQPGGSLRLSCARSENNFSINAMAWYRQAPGKQRELVAAITTAGTTNYADSVKGRFTISRDNAKTTIYLQMNSLKPEDTAVYYCNLWAGTRDDLNEYWGQGTQVTVSS
B18: S3_29 VHH-Fc (Fc fusion)
chain: B17 chain with A54S
B19: 7A9 VHH-Fc (Fc fusion)
chain: QVQLVESGGGLVQAGGSLRLSCSASGGTASRSAMGWFRQAPGKEREFVAGISRRNSGSTYVADSYEDSVKGRFTISRDNAKNTIYLQMNSLKPEDTAVYYCAAEPTLGWYVPRRSVEYEYWGQGTQVTVSS
B20: 3D4 VHH-Fc (Fc fusion)
chain: QVQLVESGGGLVQPGGSLRLSCAASGFTLDLNSIGWFRQAPGKEREGVSCISPSGSRMHYADSVKGRFTISRDNAKNTVYLQMNSLKPEDTAVYYCATGSPSYHYCSMYGLEYDSWGQGTQVTVPS
B21: 19C10 VHH-Fc (Fc fusion)
chain: B20 chain with G55A, R57S, M58T, S100T, S115D, P125S

Target: spike protein of authentic SARS-CoV/Urbani virus (SARS-CoV, UniProt P59594 14-1255)
Experiment: cell-based or functional assay

| Binder | authentic virus neutralization IC50 |
| --- | --- |
| B1 | 150 pM |

Target: spike protein of authentic SARS-CoV-2 virus (SARS-CoV-2, UniProt P0DTC2 14-1273)
Experiment: cell-based or functional assay

| Binder | authentic virus neutralization IC50 |
| --- | --- |
| B1 | 2.9 nM |

Target: T1, MERS spike protein on recombinant CHO …
Experiment: FACS on CHO K1 cells

| Binder | binding result | EC50 |
| --- | --- | --- |
| B2 | no binding |  |
| B3 | no binding |  |
| B4 | no binding |  |
| B5 | no binding |  |
| B6 | no binding |  |
| B7 | no binding |  |
| B8 | no binding |  |
| B9 | no binding |  |
| B10 | no binding |  |
| B11 | no binding |  |
| B12 | no binding |  |
| B13 | no binding |  |
| B14 | no binding |  |
| B15 | no binding |  |
| B16 | no binding |  |
| B17 |  | 0.11 nM |
| B18 |  | 0.05 nM |
| B19 | no binding |  |
| B20 | no binding |  |
| B21 | no binding |  |

Target: SARS-CoV spike protein on recombinant CHO K1 cells (SARS-CoV, UniProt P59594 14-1255)
Experiment: FACS on CHO K1 cells

| Binder | EC50 |
| --- | --- |
| B2 | 0.09 nM |
| B3 | 0.11 nM |
| B7 | 0.14 nM |
| B8 | 0.13 nM |
| B9 | 0.17 nM |
| B10 | 0.21 nM |
| B11 | 0.09 nM |
| B12 | 0.14 nM |
| B15 | 0.06 nM |
| B16 | 0.08 nM |
| B19 | 0.05 nM |

Target: T2, SARS-CoV-2 spike protein on recombinant CHO K1 cells (SARS-CoV-2, UniProt P0DTC2 14-1273)
T2 construct: whole, on cells
Experiment: FACS on CHO K1 cells

| Binder | EC50 |
| --- | --- |
| B2 | 0.08 nM |
| B3 | 0.22 nM |
| B4 | 0.04 nM |
| B5 | 0.31 nM |
| B6 | 0.04 nM |
| B7 | 0.28 nM |
| B8 | 0.21 nM |
| B9 | 0.31 nM |
| B10 | 0.43 nM |
| B11 | 0.12 nM |
| B12 | 0.25 nM |
| B13 | 0.08 nM |
| B14 | 0.06 nM |
| B15 | 0.13 nM |
| B16 | 0.14 nM |
| B17 | 0.08 nM |
| B18 | 0.03 nM |
| B19 | 0.08 nM |
| B20 | 0.15 nM |
| B21 | 0.17 nM |

Target: SARS-CoV spike on rVSV-deltaG-Luc pseudovirus (SARS-CoV, UniProt P59594 14-1236)
Experiment: cell-based or functional assay

| Binder | pseudovirus neutralization IC50 |
| --- | --- |
| B2 | 207 nM |
| B3 | 4.98 nM |
| B4 | 42 nM |
| B7 | 1.71 nM |
| B8 | 0.19 nM |
| B9 | 2.94 nM |
| B10 | 6.3 nM |
| B11 | 220 nM |
| B12 | 12.3 nM |
| B15 | 0.18 nM |
| B16 | 0.12 nM |
| B20 | 0.4 nM |
| B21 | 0.45 nM |
